From patent US20140072613A1 (published 2014)

Tests used:
Experiment in all cases: cell-based or functional assay
MSSK1(h) = MSSK1(h) (human, UniProt Q9UPE1 1-567, limits assumed)
CDK2/cyclinE(h) = CDK2/cyclinE(h) (human, UniProt P24941 1-298; P24864 1-410)
TAO1(h) = target: T1, TAO1(h) (human, UniProt Q7L7X3 1-314, limits assumed)
T1 sequence (looked up): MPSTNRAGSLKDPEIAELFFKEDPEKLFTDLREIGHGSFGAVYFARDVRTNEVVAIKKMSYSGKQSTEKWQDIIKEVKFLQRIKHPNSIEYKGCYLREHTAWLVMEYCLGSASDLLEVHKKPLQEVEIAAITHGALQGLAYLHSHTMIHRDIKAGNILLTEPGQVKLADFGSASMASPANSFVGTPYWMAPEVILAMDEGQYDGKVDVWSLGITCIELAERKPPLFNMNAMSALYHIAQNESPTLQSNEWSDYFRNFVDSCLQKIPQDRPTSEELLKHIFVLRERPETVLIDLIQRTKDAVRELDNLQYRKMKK

Rsk3(h) = Rsk3(h) (human, UniProt Q15349 1-733)
Arg(h) = Arg(h) (human, UniProt P42684 38-1182, limits assumed)
Abl(Q252H)(h) = Abl(Q252H)(h) (human, UniProt P00519 27-1130, limits assumed)
Met(h) = Met(h) (human, UniProt P08581 956-1390, limits assumed)
SGK2(h) = target: T2, SGK2(h) (human, UniProt Q9HBY8 1-367, limits assumed)
T2 sequence (looked up): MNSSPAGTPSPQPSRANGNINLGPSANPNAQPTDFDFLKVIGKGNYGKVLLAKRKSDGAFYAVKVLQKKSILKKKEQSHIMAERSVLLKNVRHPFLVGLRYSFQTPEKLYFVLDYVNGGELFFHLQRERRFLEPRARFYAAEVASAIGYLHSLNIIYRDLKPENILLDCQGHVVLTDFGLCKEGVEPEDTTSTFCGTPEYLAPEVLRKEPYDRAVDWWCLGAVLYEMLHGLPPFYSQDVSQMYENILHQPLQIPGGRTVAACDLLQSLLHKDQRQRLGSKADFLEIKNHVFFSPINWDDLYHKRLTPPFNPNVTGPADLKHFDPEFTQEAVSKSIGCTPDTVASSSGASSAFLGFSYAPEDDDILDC

Ret(V804M)(h) = target: T3, Ret(V804M)(h) (human, UniProt P07949 658-1114, limits assumed)
T3 sequence (looked up): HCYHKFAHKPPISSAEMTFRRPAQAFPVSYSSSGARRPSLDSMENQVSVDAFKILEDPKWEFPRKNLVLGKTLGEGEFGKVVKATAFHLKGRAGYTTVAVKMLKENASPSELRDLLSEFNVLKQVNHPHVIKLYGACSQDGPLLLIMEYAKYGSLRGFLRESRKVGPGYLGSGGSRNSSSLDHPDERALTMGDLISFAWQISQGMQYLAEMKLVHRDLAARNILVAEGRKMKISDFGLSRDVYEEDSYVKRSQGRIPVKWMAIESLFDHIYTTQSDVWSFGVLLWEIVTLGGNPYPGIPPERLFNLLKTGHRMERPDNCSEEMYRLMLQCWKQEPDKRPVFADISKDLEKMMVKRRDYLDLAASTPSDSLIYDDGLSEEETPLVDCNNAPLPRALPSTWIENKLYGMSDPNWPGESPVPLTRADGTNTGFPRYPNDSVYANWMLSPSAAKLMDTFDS

Haspin(h) = target: T4, Haspin(h) (human, UniProt Q8TF76 471-798, limits assumed)
T4 sequence (looked up): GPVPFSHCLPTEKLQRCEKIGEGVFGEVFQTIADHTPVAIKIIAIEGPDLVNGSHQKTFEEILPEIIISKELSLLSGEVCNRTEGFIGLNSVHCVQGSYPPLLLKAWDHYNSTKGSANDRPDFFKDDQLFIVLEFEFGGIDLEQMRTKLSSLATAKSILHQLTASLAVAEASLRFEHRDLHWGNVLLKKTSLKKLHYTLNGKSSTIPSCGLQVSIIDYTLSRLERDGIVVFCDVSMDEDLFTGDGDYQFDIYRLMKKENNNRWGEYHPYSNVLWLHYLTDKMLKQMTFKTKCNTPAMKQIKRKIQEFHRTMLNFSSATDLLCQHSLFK

Rse(h) = target: T5, Rse(h) (human, UniProt Q06418 451-890, limits assumed)
T5 sequence (looked up): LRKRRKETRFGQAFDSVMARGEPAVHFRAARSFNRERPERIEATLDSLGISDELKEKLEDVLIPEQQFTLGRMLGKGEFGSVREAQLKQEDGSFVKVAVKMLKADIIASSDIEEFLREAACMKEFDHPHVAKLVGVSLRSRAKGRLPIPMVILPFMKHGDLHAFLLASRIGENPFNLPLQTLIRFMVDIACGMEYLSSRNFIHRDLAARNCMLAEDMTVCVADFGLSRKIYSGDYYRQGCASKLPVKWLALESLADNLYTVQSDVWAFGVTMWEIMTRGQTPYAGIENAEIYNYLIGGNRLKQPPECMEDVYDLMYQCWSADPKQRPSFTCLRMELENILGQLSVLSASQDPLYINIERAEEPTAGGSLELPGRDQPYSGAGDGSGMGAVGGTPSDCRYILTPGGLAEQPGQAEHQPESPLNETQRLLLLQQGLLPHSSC

CHK1(h) = target: T6, CHK1(h) (human, UniProt O14757 1-476)
T6 sequence (looked up): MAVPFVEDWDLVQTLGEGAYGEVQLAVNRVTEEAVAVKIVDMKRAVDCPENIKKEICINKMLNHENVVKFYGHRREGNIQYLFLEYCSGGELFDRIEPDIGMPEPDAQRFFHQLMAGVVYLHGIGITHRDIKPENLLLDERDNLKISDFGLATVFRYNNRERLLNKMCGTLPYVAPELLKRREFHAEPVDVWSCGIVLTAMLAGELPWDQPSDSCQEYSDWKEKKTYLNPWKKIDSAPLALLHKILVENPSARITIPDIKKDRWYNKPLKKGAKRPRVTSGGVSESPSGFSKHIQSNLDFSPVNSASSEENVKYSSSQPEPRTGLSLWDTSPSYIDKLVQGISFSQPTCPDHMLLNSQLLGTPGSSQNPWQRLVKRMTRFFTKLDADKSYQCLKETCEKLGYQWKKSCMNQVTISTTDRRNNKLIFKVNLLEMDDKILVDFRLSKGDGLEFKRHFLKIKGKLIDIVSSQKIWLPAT

Arg(h), sequence (P42684 38-1182 limits assumed): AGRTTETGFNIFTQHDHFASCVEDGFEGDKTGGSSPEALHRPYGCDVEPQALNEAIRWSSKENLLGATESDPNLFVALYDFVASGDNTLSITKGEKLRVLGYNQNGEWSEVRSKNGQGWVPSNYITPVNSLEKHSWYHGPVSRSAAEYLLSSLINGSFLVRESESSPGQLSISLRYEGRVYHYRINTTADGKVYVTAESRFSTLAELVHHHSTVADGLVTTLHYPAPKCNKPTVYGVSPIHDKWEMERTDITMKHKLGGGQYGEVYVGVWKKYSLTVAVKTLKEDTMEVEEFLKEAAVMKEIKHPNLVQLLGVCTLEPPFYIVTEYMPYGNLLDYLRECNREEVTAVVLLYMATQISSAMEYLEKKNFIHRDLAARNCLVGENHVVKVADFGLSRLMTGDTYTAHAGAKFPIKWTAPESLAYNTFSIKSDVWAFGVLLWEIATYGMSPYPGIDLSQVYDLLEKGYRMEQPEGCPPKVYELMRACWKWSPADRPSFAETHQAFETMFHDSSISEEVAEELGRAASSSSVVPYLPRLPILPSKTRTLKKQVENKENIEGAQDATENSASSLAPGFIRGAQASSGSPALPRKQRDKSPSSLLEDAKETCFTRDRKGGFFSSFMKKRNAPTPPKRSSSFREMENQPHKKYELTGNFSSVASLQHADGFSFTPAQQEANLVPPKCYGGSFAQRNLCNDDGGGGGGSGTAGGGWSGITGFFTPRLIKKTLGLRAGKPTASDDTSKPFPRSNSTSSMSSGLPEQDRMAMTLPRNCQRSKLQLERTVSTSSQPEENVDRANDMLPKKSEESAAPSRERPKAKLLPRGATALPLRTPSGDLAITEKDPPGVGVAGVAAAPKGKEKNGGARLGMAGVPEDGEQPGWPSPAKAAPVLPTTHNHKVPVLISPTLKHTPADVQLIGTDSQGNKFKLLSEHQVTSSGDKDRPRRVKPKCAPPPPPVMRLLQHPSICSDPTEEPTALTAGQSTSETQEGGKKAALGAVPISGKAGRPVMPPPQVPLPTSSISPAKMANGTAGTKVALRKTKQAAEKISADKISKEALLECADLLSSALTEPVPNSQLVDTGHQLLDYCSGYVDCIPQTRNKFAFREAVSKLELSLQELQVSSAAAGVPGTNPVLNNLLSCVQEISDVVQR
Abl(Q252H)(h), sequence (P00519 27-1130 Q252H limits assumed): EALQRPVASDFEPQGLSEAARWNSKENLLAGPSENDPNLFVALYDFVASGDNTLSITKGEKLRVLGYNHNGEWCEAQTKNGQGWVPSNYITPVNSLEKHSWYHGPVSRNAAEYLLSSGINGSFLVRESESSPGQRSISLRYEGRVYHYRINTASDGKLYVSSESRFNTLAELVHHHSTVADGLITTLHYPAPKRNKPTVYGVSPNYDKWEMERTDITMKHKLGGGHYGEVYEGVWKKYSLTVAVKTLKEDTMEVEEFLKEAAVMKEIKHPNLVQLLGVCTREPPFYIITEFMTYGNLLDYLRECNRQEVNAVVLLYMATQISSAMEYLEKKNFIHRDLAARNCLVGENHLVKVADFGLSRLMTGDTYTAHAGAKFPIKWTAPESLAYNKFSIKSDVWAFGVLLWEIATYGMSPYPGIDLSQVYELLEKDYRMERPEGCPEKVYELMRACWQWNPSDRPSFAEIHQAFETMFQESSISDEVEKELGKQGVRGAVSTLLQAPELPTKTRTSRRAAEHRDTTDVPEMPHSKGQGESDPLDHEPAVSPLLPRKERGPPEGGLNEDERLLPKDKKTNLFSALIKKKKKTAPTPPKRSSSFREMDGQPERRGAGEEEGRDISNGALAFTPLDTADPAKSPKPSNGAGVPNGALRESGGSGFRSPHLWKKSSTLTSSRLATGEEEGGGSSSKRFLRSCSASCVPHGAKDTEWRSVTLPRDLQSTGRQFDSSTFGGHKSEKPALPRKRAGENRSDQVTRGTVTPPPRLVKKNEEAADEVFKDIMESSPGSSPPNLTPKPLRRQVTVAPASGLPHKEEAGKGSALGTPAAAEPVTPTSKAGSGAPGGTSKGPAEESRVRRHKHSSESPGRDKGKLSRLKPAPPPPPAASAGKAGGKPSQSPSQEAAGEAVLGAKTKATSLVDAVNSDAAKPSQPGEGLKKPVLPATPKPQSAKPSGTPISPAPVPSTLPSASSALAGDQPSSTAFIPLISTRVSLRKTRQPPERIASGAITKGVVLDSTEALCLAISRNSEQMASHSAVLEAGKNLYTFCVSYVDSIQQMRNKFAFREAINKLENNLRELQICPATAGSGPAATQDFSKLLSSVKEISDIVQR
Rsk3(h), sequence (Q15349 whole entry): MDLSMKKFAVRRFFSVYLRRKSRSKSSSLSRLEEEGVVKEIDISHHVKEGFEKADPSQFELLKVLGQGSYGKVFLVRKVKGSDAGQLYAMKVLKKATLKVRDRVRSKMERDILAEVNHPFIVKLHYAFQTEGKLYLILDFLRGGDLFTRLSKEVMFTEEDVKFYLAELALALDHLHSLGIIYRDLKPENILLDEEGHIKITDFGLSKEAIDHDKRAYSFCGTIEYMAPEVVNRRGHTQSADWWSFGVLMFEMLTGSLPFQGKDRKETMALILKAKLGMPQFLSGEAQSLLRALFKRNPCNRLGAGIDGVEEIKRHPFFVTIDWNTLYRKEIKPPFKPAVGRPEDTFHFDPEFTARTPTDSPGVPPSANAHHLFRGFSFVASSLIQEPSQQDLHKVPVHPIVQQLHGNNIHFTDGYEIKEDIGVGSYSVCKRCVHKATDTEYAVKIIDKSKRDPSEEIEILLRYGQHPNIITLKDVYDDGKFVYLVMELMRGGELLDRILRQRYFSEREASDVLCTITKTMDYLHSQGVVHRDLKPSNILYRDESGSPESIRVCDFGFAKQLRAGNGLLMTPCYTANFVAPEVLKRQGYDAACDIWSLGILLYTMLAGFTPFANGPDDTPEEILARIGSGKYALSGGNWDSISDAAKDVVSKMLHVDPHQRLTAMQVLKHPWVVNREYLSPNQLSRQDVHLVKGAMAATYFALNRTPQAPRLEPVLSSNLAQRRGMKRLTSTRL
MSSK1(h), sequence (Q9UPE1 whole entry): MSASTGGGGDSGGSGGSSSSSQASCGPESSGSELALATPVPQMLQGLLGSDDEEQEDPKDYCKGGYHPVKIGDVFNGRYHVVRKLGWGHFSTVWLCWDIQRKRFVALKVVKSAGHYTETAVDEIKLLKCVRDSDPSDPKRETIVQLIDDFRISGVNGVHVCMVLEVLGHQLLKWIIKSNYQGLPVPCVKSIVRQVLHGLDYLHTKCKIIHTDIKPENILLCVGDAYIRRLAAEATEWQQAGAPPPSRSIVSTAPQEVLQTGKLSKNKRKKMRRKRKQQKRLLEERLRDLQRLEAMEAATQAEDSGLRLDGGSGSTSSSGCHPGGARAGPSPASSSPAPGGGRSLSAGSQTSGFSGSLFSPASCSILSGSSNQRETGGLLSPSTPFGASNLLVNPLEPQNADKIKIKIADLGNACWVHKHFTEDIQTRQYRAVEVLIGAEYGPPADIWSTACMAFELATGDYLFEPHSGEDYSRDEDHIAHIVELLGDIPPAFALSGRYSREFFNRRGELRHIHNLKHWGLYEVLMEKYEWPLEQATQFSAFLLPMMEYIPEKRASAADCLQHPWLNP
Met(h), sequence (P08581 956-1390 limits assumed): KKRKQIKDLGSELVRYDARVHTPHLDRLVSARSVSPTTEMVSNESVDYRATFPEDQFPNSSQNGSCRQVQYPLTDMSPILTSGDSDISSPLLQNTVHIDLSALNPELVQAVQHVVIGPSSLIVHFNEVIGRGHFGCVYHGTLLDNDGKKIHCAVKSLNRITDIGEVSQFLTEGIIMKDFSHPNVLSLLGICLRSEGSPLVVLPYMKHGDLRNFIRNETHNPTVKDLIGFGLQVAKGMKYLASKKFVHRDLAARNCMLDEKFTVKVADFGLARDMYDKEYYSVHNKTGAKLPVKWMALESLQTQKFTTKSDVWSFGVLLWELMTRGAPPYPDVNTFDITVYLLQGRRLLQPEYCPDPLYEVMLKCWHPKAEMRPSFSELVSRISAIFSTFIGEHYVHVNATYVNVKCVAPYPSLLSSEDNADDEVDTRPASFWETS

B1: MMI-0300 (peptide)
peptide: FAKLAARLYRKALARQLGVAA
% activity, 100 µM (MSSK1(h)): 77%
% activity, 100 µM (CDK2/cyclinE(h)): 94%
% activity, 100 µM (TAO1(h)): 82%
% activity, 100 µM (Rsk3(h)): 76%
% activity, 100 µM (Arg(h)): 72%
% activity, 100 µM (Abl(Q252H)(h)): 82%
% activity, 100 µM (Met(h)): 65%
% activity, 100 µM (SGK2(h)): 56%
% activity, 100 µM (Ret(V804M)(h)): 95%
% activity, 100 µM (Haspin(h)): 48%
% activity, 100 µM (Rse(h)): 88%
% activity, 100 µM (CHK1(h)): 91%

B2: MMI-0400 (peptide)
peptide: KAFAKLAARLYRKALARQLGVAA
% activity, 100 µM (MSSK1(h)): 75%
% activity, 100 µM (CDK2/cyclinE(h)): 83%
% activity, 100 µM (TAO1(h)): 73%
% activity, 100 µM (Rsk3(h)): 71%
% activity, 100 µM (Arg(h)): 84%
% activity, 100 µM (Abl(Q252H)(h)): 98%
% activity, 100 µM (Met(h)): 62%
% activity, 100 µM (SGK2(h)): 98%
% activity, 100 µM (Ret(V804M)(h)): 87%
% activity, 100 µM (Haspin(h)): 36%
% activity, 100 µM (Rse(h)): 89%
% activity, 100 µM (CHK1(h)): 87%
